This note sets out measurements from publication PMC5389710.

The assay has as its target Arabidopsis thaliana NAP1-related protein 1 (NRP1) (A. thaliana) (UniProt Q9CA59). The assay can be described thus: ITC. In general terms: Isothermal titration calorimetry measures the heat released or taken up as one component is titrated into another.

Arabidopsis thaliana NAP1-related protein 1 (NRP1) (A. thaliana), sequence (Q9CA59 whole entry): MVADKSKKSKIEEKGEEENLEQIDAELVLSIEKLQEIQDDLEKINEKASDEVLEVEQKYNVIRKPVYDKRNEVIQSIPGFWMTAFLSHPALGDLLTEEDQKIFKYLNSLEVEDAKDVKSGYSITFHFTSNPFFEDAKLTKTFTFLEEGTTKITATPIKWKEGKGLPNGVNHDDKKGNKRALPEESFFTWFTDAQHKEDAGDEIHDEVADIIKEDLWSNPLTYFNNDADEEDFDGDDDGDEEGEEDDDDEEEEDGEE

As to “Xenopus laevis core histone H4 (from UniProt P62799 1-103) (natural protein)”, the dH was -10.4 kcal/mol.
Turning to “Arabidopsis thaliana cytochrome c (from UniProt Q9T0G2 1-112) (natural protein)”, the Kd worked out at 5000 nM.
For the substance “Chicken erythrocyte H2A–H2B histone dimer (from UniProt P02263 1-129; P0C1H3 1-126) (complex)”, the Kd came to 100 nM. Compared with the last substance, the Kd is about 50-fold lower.

What is called Kd is the constant that tells how readily two partners part at equilibrium. Low readings indicate a tighter complex, high ones a looser complex.
